System: MS2 coat protein
Assay: apparent KD of MS2 coat protein; designed switch direction (-1 OFF switch, 1 ON switch): 1; higher = weaker reporter binding
In short: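 Designed RNA switches with common flanks were transcribed on Illumina chips by stalled E. coli RNA polymerase and titrated with SNAP-549-labelled MS2 coat protein, from 0.7 or 1.5 nM doubling to 3 µM, in Tris-HCl pH 7.5 buffer with KCl, MgCl2, BSA, DTT, tRNA and Tween-20. Steps lasted 0.8–1.5 h (lowest) to 10–20 min (highest). Titrations ran without input, with 200 uM small-molecule ligand, or with an oligonucleotide input. Normalised cluster fluorescence was curve-fitted, and apparent KD is the per-design median over clusters.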

[1] = Eterna round: R95, input ligand: FMN 200 uM
[2] = Eterna round: R95, input ligand: microRNA oligo, concentration not stated
[3] = Eterna round: R95, input ligand: none
[4] = input ligand: microRNA oligo, concentration not stated

Sequence	apparent KD of MS2 coat protein [1] [nM]	apparent KD of MS2 coat protein [2] [nM]	apparent KD of MS2 coat protein [3] [nM]	apparent KD of MS2 coat protein (input ligand: FMN 200 uM) [nM]	apparent KD of MS2 coat protein [4] [nM]	apparent KD of MS2 coat protein (input ligand: none) [nM]
GUAGAUGUAGAGGAGGAUAUUCAAUGAGGAACAUGAGGAUCACCCAUGUAAGAGAGAGAUGAUGAGAAGAAGGCUUAGAGAGAUG [Altered State 2-2 - Jieux - Same State 2] (puzzle: Same State 2)	32.3	31.3	46			
GUAGCAUACCGAGGAUAUUCAUACAUGAGGAUCACCCAUGUUAUUAUAGGACGAUUACGUCCUUGGGAGAAGGCGGAAUGCUAC [Xeonanis - 20 Mod29] (Eterna round: R96, puzzle: Same State NG 2)				10.2	11.8	15.1
GUAGCAUACCGAGGAUAUUCAUAUUAACAUGAGGAUCACCCAUGUUUUUAGGCCAAAAGGCCUUGGGAGAAGGCGGAAUGCUAC [Xeonanis - 20 Mod6] (Eterna round: R96, puzzle: Same State NG 2)				11.4	12.8	16.1
GUAGCAUACCGAGGAUAUUCAUAUUACAUGAGGAUCACCCAUGUUAAAGAUAGGCGAAAGCCUUGGGAGAAGGCGGAAUGCUAC [Xeonanis - 20 Mod68] (Eterna round: R96, puzzle: Same State NG 2)				8.61	10.7	11.3
GUAGCAUACCGAGGAUAUUCAUAUUACAUGAGGAUCACCCAUGUUAUUUAGGCCAAAAGGCCUUGGGAGAAGGCGGAAUGCUAC [Xeonanis - 20 Mod8] (Eterna round: R96, puzzle: Same State NG 2)				9.39	9.17	18.2
GUAGCAUACCGAGGAUAUUCAUUACAUGAGGAUCACCCAUGUUAGGCCAGCAUUAGCUGGCCUUGGGAGAAGGCGGAAUGCUAC [Xeonanis - 20 Mod53] (Eterna round: R96, puzzle: Same State NG 2)				14	29.1	37.8
GUAGCAUACCGAGGAUAUUCAUUACAUGAGGAUCACCCAUGUUUAAAUAAUAGGCGAAAGCCUUGGGAGAAGGCGGAAUGCUAC [Xeonanis - 20 Mod71] (Eterna round: R96, puzzle: Same State NG 2)				10.9	10.1	14
GUAGCAUGCAGGCAGGAUAUUCAUAUUAAAACAUGAGGAUCACCCAUGUAGGCCAAAAGGCCUUGGGAGAAGGGCCACAUGCUAC [Xeonanis - 19] (Eterna round: R96, puzzle: Same State 2)				35.7	337	424
GUAGCAUGCAGGCAGGAUAUUCAUAUUAAAACAUGAGGAUCACCCAUGUAGGCCAAAAGGCCUUGGGAGAAGGGCCACAUGCUAC [Xeonanis - 19] (puzzle: Same State 2)	34.9	488	842			
GUCCAAAACACAGGAUAUCCCGGUCAAAAUCCGGGAGAAGGGUGGCCACAUGAGGAUCACCCAUGUGACGUGCGAGAGGCACGA [Diessorire] (Eterna round: R96, puzzle: Same State NG 1)				118	318	540
GUCGGUCUGUCGUGCUGUGGUGAUAGUUAACAUGAGGAUCACCCAUGUUGCUUUCGGGUCGUUGGGAGUUUUUUUCG [Modxample 121 - Jieux - Sensor for bsa-mir-208a] (Eterna round: R96, puzzle: Sensor for hsa-mir-208a)				63.1	43.9	64
GUGGAGGGUUGAGGAUAUUGAUUGCAUAUGUUUAACAUGAGGAUCACCCAUGUGGGUUGCGGUUUCGAGAAGGUAGGUUGCUGG [salish99_SSNG2_r04_042] (Eterna round: R96, puzzle: Same State NG 2)				80.8	59.4	72.2
